*1 amine or outer side, *2 acyl side, *3 side chain or, on linkers, in order; H or OH if unused. Side-chain parts run from the residue outwards. The star is where a group is joined. C18 diacid = O=C(O)CCCCCCCCCCCCCCCCC(=O)*; γGlu = O=C(O)[C@H](CCC(=O)[*:2])N[*:1]; Isovaleryl = CC(C)CC(=O)*; Ahx = NCCCCCC(=O)O

In patent publication US20260015399A1 (Boehringer Ingelheim, published 2026) one finds Ki data, which are given here for five molecules.

In this assay the target is T1, human NPY2 receptor (human, UniProt P49146 1-381).
T1 construct: whole, on cells; also called hNPY2-R; hNPY2R
T1 sequence (looked up): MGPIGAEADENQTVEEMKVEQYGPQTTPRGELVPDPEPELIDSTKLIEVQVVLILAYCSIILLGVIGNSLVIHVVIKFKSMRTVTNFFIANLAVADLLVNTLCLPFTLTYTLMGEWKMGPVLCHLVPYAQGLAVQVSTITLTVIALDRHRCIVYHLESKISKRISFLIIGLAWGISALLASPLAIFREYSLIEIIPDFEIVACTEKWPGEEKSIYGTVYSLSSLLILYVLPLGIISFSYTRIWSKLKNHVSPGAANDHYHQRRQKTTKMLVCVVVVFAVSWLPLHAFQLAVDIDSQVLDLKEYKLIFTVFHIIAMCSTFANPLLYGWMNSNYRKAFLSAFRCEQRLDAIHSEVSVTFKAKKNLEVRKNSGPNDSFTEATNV
The experiment in a line: RLB: displacement of 125I-PYY(1-36) from hNPY2R membranes. The method, then: The filtration RLB assay was carried out in 96-well plates in a final volume of 100 μl per well. Freeze-dried test peptides were dissolved in 100% dimethyl sulfoxide (DMSO) to stock solutions of 1 mM and serial dilutions were performed in assay buffer (50 mM HEPES, 5 mM MgCl₂, 1 mM CaCl₂), pH 7.4) containing 0.2% ovalbumin. […] Next, 80 μL membranes (HTS066M, ChemiSCREEN™ Human Neuropeptide Y2 Receptor Membrane Preparation, CHEMICON) were added to each well to give a final protein concentration of 0.5 μg/well. The plates were sealed and incubated at room temperature for 2 hours in a plate shaker set at 400 rpm. The incubation was stopped by vacuum filtration onto 0.5% polyethylene amine (PEI) presoaked GF/C filters using a 96-well FilterMate™ harvester (Perkin Elmer) followed by four washes with 300 μl/well ice-cold wash buffer (50 mM HEPES, 500 mM NaCl, pH7.4). Filter plates were then dried for 60 min at room temperature and the bottom of the plates was sealed with backing tape UniFilter-96. Finally, 50 μl/well scintillation counter cocktail (Microscint20, Packard) was added and the radioactivity was counted in the Packard TopCount NXT scintillation counter. IC₅₀ values (the half maximal inhibitory concentration of the agonist) were calculated by nonlinear regression analysis of sigmoidal dose-response curves.
In general terms: Loss of bound radioactivity is the signal in a displacement assay; it reports binding, not function.

B1: Compound 9 (peptide)
peptide: Isovaleryl-APEK([Ahx-γGlu-C18 diacid])PEEQATPEELQRYYVSLRHYYNWLTRQRY-NH2
SMILES: CC(C)CC(=O)N[C@@H](C)C(=O)N1CCC[C@H]1C(=O)N[C@@H](CCC(=O)O)C(=O)N[C@@H](CCCCNC(=O)CCCCCNC(=O)CC[C@H](NC(=O)CCCCCCCCCCCCCCCCC(=O)O)C(=O)O)C(=O)N1CCC[C@H]1C(=O)N[C@@H](CCC(=O)O)C(=O)N[C@@H](CCC(=O)O)C(=O)N[C@@H](CCC(N)=O)C(=O)N[C@@H](C)C(=O)N[C@H](C(=O)N1CCC[C@H]1C(=O)N[C@@H](CCC(=O)O)C(=O)N[C@@H](CCC(=O)O)C(=O)N[C@@H](CC(C)C)C(=O)N[C@@H](CCC(N)=O)C(=O)N[C@@H](CCCNC(=N)N)C(=O)N[C@@H](Cc1ccc(O)cc1)C(=O)N[C@@H](Cc1ccc(O)cc1)C(=O)N[C@H](C(=O)N[C@@H](CO)C(=O)N[C@@H](CC(C)C)C(=O)N[C@@H](CCCNC(=N)N)C(=O)N[C@@H](Cc1c[nH]cn1)C(=O)N[C@@H](Cc1ccc(O)cc1)C(=O)N[C@@H](Cc1ccc(O)cc1)C(=O)N[C@@H](CC(N)=O)C(=O)N[C@@H](Cc1c[nH]c2ccccc12)C(=O)N[C@@H](CC(C)C)C(=O)N[C@H](C(=O)N[C@@H](CCCNC(=N)N)C(=O)N[C@@H](CCC(N)=O)C(=O)N[C@@H](CCCNC(=N)N)C(=O)N[C@@H](Cc1ccc(O)cc1)C(N)=O)[C@@H](C)O)C(C)C)[C@@H](C)O
Broadly, the Ki is a dissociation constant, usually derived from enzyme kinetics or from competition with a known ligand. Turning to B1, the Ki was determined as 3.32 nM.

B2: Compound 19 (peptide)
peptide: Isovaleryl-APEK([Ahx-γGlu-C18 diacid])PEEDATEEELQRYYVSLRHYYNWLTRQRY-NH2
SMILES: CC(C)CC(=O)N[C@@H](C)C(=O)N1CCC[C@H]1C(=O)N[C@@H](CCC(=O)O)C(=O)N[C@@H](CCCCNC(=O)CCCCCNC(=O)CC[C@H](NC(=O)CCCCCCCCCCCCCCCCC(=O)O)C(=O)O)C(=O)N1CCC[C@H]1C(=O)N[C@@H](CCC(=O)O)C(=O)N[C@@H](CCC(=O)O)C(=O)N[C@@H](CC(=O)O)C(=O)N[C@@H](C)C(=O)N[C@H](C(=O)N[C@@H](CCC(=O)O)C(=O)N[C@@H](CCC(=O)O)C(=O)N[C@@H](CCC(=O)O)C(=O)N[C@@H](CC(C)C)C(=O)N[C@@H](CCC(N)=O)C(=O)N[C@@H](CCCNC(=N)N)C(=O)N[C@@H](Cc1ccc(O)cc1)C(=O)N[C@@H](Cc1ccc(O)cc1)C(=O)N[C@H](C(=O)N[C@@H](CO)C(=O)N[C@@H](CC(C)C)C(=O)N[C@@H](CCCNC(=N)N)C(=O)N[C@@H](Cc1c[nH]cn1)C(=O)N[C@@H](Cc1ccc(O)cc1)C(=O)N[C@@H](Cc1ccc(O)cc1)C(=O)N[C@@H](CC(N)=O)C(=O)N[C@@H](Cc1c[nH]c2ccccc12)C(=O)N[C@@H](CC(C)C)C(=O)N[C@H](C(=O)N[C@@H](CCCNC(=N)N)C(=O)N[C@@H](CCC(N)=O)C(=O)N[C@@H](CCCNC(=N)N)C(=O)N[C@@H](Cc1ccc(O)cc1)C(N)=O)[C@@H](C)O)C(C)C)[C@@H](C)O
B2 came in with a Ki of 9.63 nM.

B3: Compound 13 (peptide)
peptide: Isovaleryl-APEK([Ahx-γGlu-C18 diacid])PEADASPEETQRYYVSLRHYYNWLTRQRY-NH2
SMILES: CC(C)CC(=O)N[C@@H](C)C(=O)N1CCC[C@H]1C(=O)N[C@@H](CCC(=O)O)C(=O)N[C@@H](CCCCNC(=O)CCCCCNC(=O)CC[C@H](NC(=O)CCCCCCCCCCCCCCCCC(=O)O)C(=O)O)C(=O)N1CCC[C@H]1C(=O)N[C@@H](CCC(=O)O)C(=O)N[C@@H](C)C(=O)N[C@@H](CC(=O)O)C(=O)N[C@@H](C)C(=O)N[C@@H](CO)C(=O)N1CCC[C@H]1C(=O)N[C@@H](CCC(=O)O)C(=O)N[C@@H](CCC(=O)O)C(=O)N[C@H](C(=O)N[C@@H](CCC(N)=O)C(=O)N[C@@H](CCCNC(=N)N)C(=O)N[C@@H](Cc1ccc(O)cc1)C(=O)N[C@@H](Cc1ccc(O)cc1)C(=O)N[C@H](C(=O)N[C@@H](CO)C(=O)N[C@@H](CC(C)C)C(=O)N[C@@H](CCCNC(=N)N)C(=O)N[C@@H](Cc1c[nH]cn1)C(=O)N[C@@H](Cc1ccc(O)cc1)C(=O)N[C@@H](Cc1ccc(O)cc1)C(=O)N[C@@H](CC(N)=O)C(=O)N[C@@H](Cc1c[nH]c2ccccc12)C(=O)N[C@@H](CC(C)C)C(=O)N[C@H](C(=O)N[C@@H](CCCNC(=N)N)C(=O)N[C@@H](CCC(N)=O)C(=O)N[C@@H](CCCNC(=N)N)C(=O)N[C@@H](Cc1ccc(O)cc1)C(N)=O)[C@@H](C)O)C(C)C)[C@@H](C)O
Molecule B3 showed an inhibition constant (Ki) of 1.53 nM.

B4: Compound 17 (peptide)
peptide: Isovaleryl-APEK([Ahx-γGlu-C18 diacid])PEEDATPEEIQRYYPSLRHYYNWLTRQRY-NH2
SMILES: CC[C@H](C)[C@H](NC(=O)[C@H](CCC(=O)O)NC(=O)[C@H](CCC(=O)O)NC(=O)[C@@H]1CCCN1C(=O)[C@@H](NC(=O)[C@H](C)NC(=O)[C@H](CC(=O)O)NC(=O)[C@H](CCC(=O)O)NC(=O)[C@H](CCC(=O)O)NC(=O)[C@@H]1CCCN1C(=O)[C@H](CCCCNC(=O)CCCCCNC(=O)CC[C@H](NC(=O)CCCCCCCCCCCCCCCCC(=O)O)C(=O)O)NC(=O)[C@H](CCC(=O)O)NC(=O)[C@@H]1CCCN1C(=O)[C@H](C)NC(=O)CC(C)C)[C@@H](C)O)C(=O)N[C@@H](CCC(N)=O)C(=O)N[C@@H](CCCNC(=N)N)C(=O)N[C@@H](Cc1ccc(O)cc1)C(=O)N[C@@H](Cc1ccc(O)cc1)C(=O)N1CCC[C@H]1C(=O)N[C@@H](CO)C(=O)N[C@@H](CC(C)C)C(=O)N[C@@H](CCCNC(=N)N)C(=O)N[C@@H](Cc1c[nH]cn1)C(=O)N[C@@H](Cc1ccc(O)cc1)C(=O)N[C@@H](Cc1ccc(O)cc1)C(=O)N[C@@H](CC(N)=O)C(=O)N[C@@H](Cc1c[nH]c2ccccc12)C(=O)N[C@@H](CC(C)C)C(=O)N[C@H](C(=O)N[C@@H](CCCNC(=N)N)C(=O)N[C@@H](CCC(N)=O)C(=O)N[C@@H](CCCNC(=N)N)C(=O)N[C@@H](Cc1ccc(O)cc1)C(N)=O)[C@@H](C)O
B4 displayed an inhibition constant Ki of 24.6 nM.

B5: Compound 20 (peptide)
peptide: Isovaleryl-APAK([Ahx-γGlu-C18 diacid])PEEDASPEELQRYQVSLRHYYNWLTRQRY-NH2
SMILES: CC(C)CC(=O)N[C@@H](C)C(=O)N1CCC[C@H]1C(=O)N[C@@H](C)C(=O)N[C@@H](CCCCNC(=O)CCCCCNC(=O)CC[C@H](NC(=O)CCCCCCCCCCCCCCCCC(=O)O)C(=O)O)C(=O)N1CCC[C@H]1C(=O)N[C@@H](CCC(=O)O)C(=O)N[C@@H](CCC(=O)O)C(=O)N[C@@H](CC(=O)O)C(=O)N[C@@H](C)C(=O)N[C@@H](CO)C(=O)N1CCC[C@H]1C(=O)N[C@@H](CCC(=O)O)C(=O)N[C@@H](CCC(=O)O)C(=O)N[C@@H](CC(C)C)C(=O)N[C@@H](CCC(N)=O)C(=O)N[C@@H](CCCNC(=N)N)C(=O)N[C@@H](Cc1ccc(O)cc1)C(=O)N[C@@H](CCC(N)=O)C(=O)N[C@H](C(=O)N[C@@H](CO)C(=O)N[C@@H](CC(C)C)C(=O)N[C@@H](CCCNC(=N)N)C(=O)N[C@@H](Cc1c[nH]cn1)C(=O)N[C@@H](Cc1ccc(O)cc1)C(=O)N[C@@H](Cc1ccc(O)cc1)C(=O)N[C@@H](CC(N)=O)C(=O)N[C@@H](Cc1c[nH]c2ccccc12)C(=O)N[C@@H](CC(C)C)C(=O)N[C@H](C(=O)N[C@@H](CCCNC(=N)N)C(=O)N[C@@H](CCC(N)=O)C(=O)N[C@@H](CCCNC(=N)N)C(=O)N[C@@H](Cc1ccc(O)cc1)C(N)=O)[C@@H](C)O)C(C)C
In the case of B5, the inhibition constant Ki was 2.41 nM. Compared with the last molecule, the Ki is about 10-fold lower.
